Two substances from patent publication US8840891 (RSR, dated 2014) can be followed below.

For test [1], the target named is human TSHR, wild type, expressed on CHO cells (human) (UniProt P16473). Put plainly: cell-based or functional assay.
Test [2] concerns the target human TSHR (wild type) expressed in CHO cells (human) (UniProt P16473). As to the kind of experiment: cell-based or functional assay.

In test [1], M22 Fab had a cyclic AMP; Exp 1; M22 3 ng/mL of 49.1 pmol/mL, a cyclic AMP; Exp 2; M22 3 ng/mL of 68.3 pmol/mL, a cyclic AMP; Exp 3; M22 0.3 ng/mL of 21.8 pmol/mL and a cyclic AMP; Exp 4; M22 0.3 ng/mL of 31.1 pmol/mL. For the same substance, in test [2], the cyclic AMP production; M22 Fab 3 ng/mL only (fmol/cell well) is 9430.

In the case of 5C9 F(ab′)2, in test [2], the cyclic AMP; Example 1; 5C9 F(ab′)2 10 µg/mL + TSH (fmol/cell well) worked out at 916, the cyclic AMP; Example 1; 5C9 F(ab′)2 100 µg/mL + TSH (fmol/cell well) came out at 877, the cyclic AMP; Example 1; 5C9 F(ab′)2 100 µg/mL only (fmol/cell well) was determined as 204 and the cyclic AMP; Example 2; 5C9 F(ab′)2 10 µg/mL + TSH (fmol/cell well) amounted to 1330. Besides, in test [2], the cyclic AMP; Example 2; 5C9 F(ab′)2 100 µg/mL + TSH (fmol/cell well) came to 1060 and the cyclic AMP; Example 2; 5C9 F(ab′)2 100 µg/mL only (fmol/cell well) stood at 414.
